Results as given in US20240325555A1 (LANOVA MEDICINES, published 2024).
Where two headings read alike, the source gives them in different places.

Experiments:
human LIV-1 [1] = target: T1, human LIV-1 (human, UniProt Q13433 29-755); assay: FACS, HEK293/H_LIV-1 cells
T1 construct: whole, on cells; also called H-LIV1
T1 sequence (looked up): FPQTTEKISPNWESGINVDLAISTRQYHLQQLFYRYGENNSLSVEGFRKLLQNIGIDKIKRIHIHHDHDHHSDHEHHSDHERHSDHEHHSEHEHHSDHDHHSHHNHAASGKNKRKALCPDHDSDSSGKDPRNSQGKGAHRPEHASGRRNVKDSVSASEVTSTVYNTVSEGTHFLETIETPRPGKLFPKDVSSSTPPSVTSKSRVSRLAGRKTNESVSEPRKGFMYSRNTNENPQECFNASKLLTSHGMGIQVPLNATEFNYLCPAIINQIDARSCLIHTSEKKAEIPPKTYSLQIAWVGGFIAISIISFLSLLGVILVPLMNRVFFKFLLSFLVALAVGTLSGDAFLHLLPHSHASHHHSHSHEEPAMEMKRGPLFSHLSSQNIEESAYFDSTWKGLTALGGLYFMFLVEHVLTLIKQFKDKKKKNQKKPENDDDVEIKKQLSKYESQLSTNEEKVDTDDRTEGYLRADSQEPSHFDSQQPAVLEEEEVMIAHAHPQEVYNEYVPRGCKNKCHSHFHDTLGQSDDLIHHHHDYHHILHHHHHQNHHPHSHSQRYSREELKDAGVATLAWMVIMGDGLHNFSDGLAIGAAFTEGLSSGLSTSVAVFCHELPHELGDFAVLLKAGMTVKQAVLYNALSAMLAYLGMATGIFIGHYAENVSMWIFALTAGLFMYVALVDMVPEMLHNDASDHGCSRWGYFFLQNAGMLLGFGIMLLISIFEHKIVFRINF
Procedure: In this example, cell based binding of humanized antibodies (hu Abs) on human LIV-1-expressing cells were assessed using flow cytometry.
(§1) Cell based binding of hu-Abs on human LIV-1 expressing cells were assessed using flow cytometry. Briefly, the HEK293/H_LIV-1 cells were incubated with hu-Abs (from 100 nM, 6 folds dilution, 8 points). After incubation at 4° C. for 60 minutes, the cells were washed with FACS buffer twice, then stained with fluorescent conjugated secondary antibody at 4° C. for 30 minutes. After that the cells were washed twice and analyzed by flow cytometry.

human LIV-1 [2] = target: T1, human LIV-1; assay: cell-based or functional assay
human LIV-1 [3] = target: T1, human LIV-1; assay: FACS, HEK293/H_LIV-1 cells; remark: listed apart in the source
How it was run: (§2)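 HEK293 cells over-expressing human or cyno LIV-1 incubated with chimeric Abs (from 100 nM, 5-fold dilutions, 8 points) for 60 min at 4 °C, then fluorescent secondary antibody 30 min at 4 °C; washes in 2% FBS/PBS. Binding read by flow cytometry; EC50 from the titration curve.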

cynomolgus LIV-1 [4] = target: T2, cynomolgus LIV-1 (cynomolgus, UniProt A0A2K5WH46 30-741); assay: FACS, HEK293/Cyno_LIV-1 cells
How it was run: as §2

rhesus LIV-1 = rhesus LIV-1 (rhesus, UniProt H9FSJ2 30-735); assay: FACS, HEK293/Rhe_LIV-1 cells
Sequence of rhesus LIV-1 (H9FSJ2 entry or part of it): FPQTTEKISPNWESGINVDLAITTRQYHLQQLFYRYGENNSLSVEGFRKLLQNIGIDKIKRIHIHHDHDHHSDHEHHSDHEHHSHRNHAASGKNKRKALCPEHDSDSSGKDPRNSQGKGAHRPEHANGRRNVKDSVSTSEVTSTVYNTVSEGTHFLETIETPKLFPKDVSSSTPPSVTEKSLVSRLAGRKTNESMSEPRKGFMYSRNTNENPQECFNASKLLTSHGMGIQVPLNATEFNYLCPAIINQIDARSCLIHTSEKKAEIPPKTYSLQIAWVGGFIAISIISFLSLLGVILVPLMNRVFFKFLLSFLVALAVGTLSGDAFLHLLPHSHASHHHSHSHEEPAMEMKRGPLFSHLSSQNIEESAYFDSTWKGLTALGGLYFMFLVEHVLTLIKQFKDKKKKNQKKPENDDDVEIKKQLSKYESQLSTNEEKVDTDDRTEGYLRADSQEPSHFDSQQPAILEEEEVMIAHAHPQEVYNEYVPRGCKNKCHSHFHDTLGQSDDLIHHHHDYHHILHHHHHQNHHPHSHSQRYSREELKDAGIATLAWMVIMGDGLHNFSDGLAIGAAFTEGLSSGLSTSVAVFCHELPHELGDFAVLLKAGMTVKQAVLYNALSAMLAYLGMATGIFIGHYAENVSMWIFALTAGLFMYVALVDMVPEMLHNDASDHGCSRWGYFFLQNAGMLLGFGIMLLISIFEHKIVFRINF
Procedure: Humanized antibodies 5D6B10.z7, 124H4D11.p2.z4 and 290F10G10.p1.z2 were selected for further testing. In this example, FACS cross binding of these selected antibodies to LIV-1 of different species were assessed using flow cytometry.
(§3) Cell based binding of optimal leads to different species LIV-1 expressing cells were assessed using flow cytometry. Briefly, the cells were incubated with optimal leads (from 100 nM, 6 folds dilution, 8 points). After incubation at 4° C. for 60 minutes, the cells were washed with 2% FBS/PBS buffer twice, then stained with fluorescent conjugated secondary antibody at 4° C. for 30 minutes. After that the cells were washed twice and resuspended in 80 μL of 2% FBS/PBS buffer. Fluorescent signal of binding was detected using Agilent. The EC50 was calculated using the GraphPad Software (LaJolla, CA).

human LIV-1 [5] = target: T1, human LIV-1; assay: cell-based or functional assay; remark: listed apart in the source
cynomolgus LIV-1 [6] = target: T2, cynomolgus LIV-1; assay: FACS, HEK293/Cyno_LIV-1 cells; remark: listed apart in the source
Target sequence in this assay (A0A2K5WH46 entry or part of it): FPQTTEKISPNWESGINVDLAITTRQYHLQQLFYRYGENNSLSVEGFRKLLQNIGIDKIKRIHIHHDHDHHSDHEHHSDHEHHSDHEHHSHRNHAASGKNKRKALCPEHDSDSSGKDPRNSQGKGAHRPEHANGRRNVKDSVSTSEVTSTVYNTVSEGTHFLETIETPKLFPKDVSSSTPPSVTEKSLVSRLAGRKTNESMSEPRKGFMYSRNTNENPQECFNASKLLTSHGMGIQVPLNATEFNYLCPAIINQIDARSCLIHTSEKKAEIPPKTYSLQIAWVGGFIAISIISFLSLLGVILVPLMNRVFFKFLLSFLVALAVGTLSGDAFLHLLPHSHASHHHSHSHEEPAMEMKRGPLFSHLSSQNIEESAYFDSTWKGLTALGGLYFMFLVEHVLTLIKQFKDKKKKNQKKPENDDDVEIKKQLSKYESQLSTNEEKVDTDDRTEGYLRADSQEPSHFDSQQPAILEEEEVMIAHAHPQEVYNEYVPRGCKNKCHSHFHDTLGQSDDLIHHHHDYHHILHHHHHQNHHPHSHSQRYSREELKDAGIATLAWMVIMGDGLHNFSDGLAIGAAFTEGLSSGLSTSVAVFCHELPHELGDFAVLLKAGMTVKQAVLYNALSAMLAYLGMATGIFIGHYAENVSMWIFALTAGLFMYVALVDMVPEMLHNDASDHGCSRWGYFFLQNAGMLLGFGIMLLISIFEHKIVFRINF

cynomolgus LIV-1 [7] = target: T2, cynomolgus LIV-1; assay: FACS, HEK293/Cyno_LIV-1 cells; remark: listed apart in the source
Procedure: as §3
Target sequence in this assay (A0A2K5WH46 entry or part of it): as above

human LIV-1 [8] = target: T1, human LIV-1; assay: cell-based or functional assay; remark: listed apart in the source
human LIV-1 [9] = target: T1, human LIV-1; assay: cell-based or functional assay; remark: listed apart in the source
human LIV-1 [10] = target: T1, human LIV-1; assay: FACS, BT20/H_LIV-1 Low cells
Procedure: as §1, with “ADC and naked of ADC” for “hu-Abs”, “HEK293/H_LIV-1, both low- and high-expressing H-LIV1-positive cell lines” for “the HEK293/H_LIV-1 cells”, “points), respectively.” for “points).”

human LIV-1 [11] = target: T1, human LIV-1; assay: FACS, BT20/H_LIV-1 High cells
Procedure: as §1, with “ADC and naked of ADC” for “hu-Abs”, “HEK293/H_LIV-1, both low- and high-expressing H-LIV1-positive cell lines” for “the HEK293/H_LIV-1 cells”, “points), respectively.” for “points).”

human LIV-1 [12] = target: T1, human LIV-1; assay: FACS, HEK293/H_LIV-1 cells; remark: listed apart in the source
Procedure: as §1, with “ADC and naked of ADC” for “hu-Abs”, “HEK293/H_LIV-1, both low- and high-expressing H-LIV1-positive cell lines” for “the HEK293/H_LIV-1 cells”, “points), respectively.” for “points).”

human LIV-1 [13] = target: T1, human LIV-1; assay: cell-based or functional assay; remark: listed apart in the source

B1: 5D6B10 (antibody, V domains shown)
VH: QVQLKQSGPGLVQPSQSLSITCTVSGFSLTTYGIHWVRQSPGKGLEWLGVIWTGGTTDYNAAFISRLSISKDNSKSQVFFKMNSLQANDTAIYYCARGPSSYWGQGTLVTVSA
VL: DIVMTQSQKFMSTSVGDRVSVTCKASQNVDTNVVWYQQKPGQSPKALIHSASYRYSGVPDRFTGSGSGTDFTLTISNVQSEDLAEYFCQQYNNYPWTFGGGTKLEIK
notes: Tested as chimeric antibody
Human LIV-1 [1]
  EC50: 0.29 nM
  Top (MFI): 61900 MFI
Human LIV-1 [2]
  ADCC reporter EC50: 0.3 nM
  ADCC reporter Top (RFU): 121000 RFU
Human LIV-1 [3]
  EC50: 0.21 nM
  Top (MFI): 70100 MFI
Cynomolgus LIV-1 [4]
  EC50: 0.17 nM
  Top (MFI): 41100 MFI
Rhesus LIV-1
  EC50: 0.27 nM
  Top (MFI): 38400 MFI
Human LIV-1 [5]
  Cell viability(%): 16.4%
  Cytotoxicity IC50: 1.55 nM
Cynomolgus LIV-1 [6]
  EC50: 0.39 nM
  Top (MFI): 25700 MFI
Cynomolgus LIV-1 [7]
  EC50: 0.53 nM
  Top (MFI): 13900 MFI
Human LIV-1 [8]
  Internalization EC50: 12.7 nM
  Internalization Top (RFU): 145000 RFU

B2: 290F10G10.z2-Eribulin (antibody, V domains shown)
VH: EVQLVQSGAEVKKPGASVKVSCKASGYTFTSYWIHWVRQAPGQGLEWMGTIYPGDADTRSTQKFKDRVTMTADTSTSTVYMELSSLRSEDTAVYYCARSLIHDDYDKYYFDYWGQGTTVTVSS
VL: DIQMTQSPSSLSASVGDRVTITCKARQDINKYIAWYQQKPGKAPKLLIHYTSILQPGIPSRFSGSGSGRDYTFTISSLQPEDIATYYCLQYDYFFTFGGGTKVEIK
modifications: Eribulin drug moiety conjugated; site and chain not stated
Human LIV-1 [9]
  Min cell viability %, BT20/H_LIV-1 High: 17.6%
  Min cell viability %, BT20/H_LIV-1 Low: 38.4%
  Min cell viability %, HEK293/H_LIV-1: 18.4%
Human LIV-1 [10]
  EC50: 1.14 nM
  Top (MFI): 3620 MFI
Human LIV-1 [11]
  EC50: 1.2 nM
  Top (MFI): 21000 MFI
Human LIV-1 [12]
  EC50: 0.55 nM
  Top (MFI): 18800 MFI

B3: 290F10G10.z2-MMAE (antibody, V domains shown)
VH: EVQLVQSGAEVKKPGASVKVSCKASGYTFTSYWIHWVRQAPGQGLEWMGTIYPGDADTRSTQKFKDRVTMTADTSTSTVYMELSSLRSEDTAVYYCARSLIHDDYDKYYFDYWGQGTTVTVSS
VL: DIQMTQSPSSLSASVGDRVTITCKARQDINKYIAWYQQKPGKAPKLLIHYTSILQPGIPSRFSGSGSGRDYTFTISSLQPEDIATYYCLQYDYFFTFGGGTKVEIK
modifications: MMAE drug moiety conjugated; site and chain not stated
notes: also called LM-001-MMAE
Human LIV-1 [9]
  Min cell viability %, BT20/H_LIV-1 High: 14.7%
  Min cell viability %, BT20/H_LIV-1 Low: 37.9%
  Min cell viability %, HEK293/H_LIV-1: 15.3%
Human LIV-1 [10]
  EC50: 0.68 nM
  Top (MFI): 3570 MFI
Human LIV-1 [11]
  EC50: 0.66 nM
  Top (MFI): 20800 MFI
Human LIV-1 [12]
  EC50: 0.34 nM
  Top (MFI): 19100 MFI
Human LIV-1 [13]
  Bottom (% viability), BT20/H_LIV1-High expression: 29.1%
  Bottom (% viability), BT20/H_LIV1-Low expression: 46.8%

B4: 124H4D11.p2.z4-Eribulin (antibody, V domains shown)
VH: QVQLVQSGAEVVKPGASVKVSCKASGFNIKDYYMHWVRQAPGQGLEWIGWIDPENDDTEYDPKFQGRVTMTADTSTSTVYMELSSLRSEDTAVYYCAARYYAFDYWGQGTMVTVSS
VL: DVLMTQSPLSLPVTLGQPASISCRSSQSIVHSNANTYLEWYLQRPGQSPRLLIYKVSNRFSGVPDRFSGSGSGTDFTLKISRVEAEDVGVYYCFQGSQVPPTFGQGTKLEIK
modifications: Eribulin drug moiety conjugated; site and chain not stated
notes: Antibody-drug conjugate of 124H4D11.p2.z4; human gamma 1/kappa
Human LIV-1 [9]
  Min cell viability %, BT20/H_LIV-1 High: 20.7%
  Min cell viability %, BT20/H_LIV-1 Low: 37.9%
  Min cell viability %, HEK293/H_LIV-1: 21.5%
Human LIV-1 [10]
  EC50: 0.05 nM
  Top (MFI): 3100 MFI
Human LIV-1 [11]
  EC50: 0.1 nM
  Top (MFI): 19200 MFI
Human LIV-1 [12]
  EC50: 0.1 nM
  Top (MFI): 19400 MFI

B5: 124H4D11.p2.z4-MMAE (antibody, V domains shown)
VH: QVQLVQSGAEVVKPGASVKVSCKASGFNIKDYYMHWVRQAPGQGLEWIGWIDPENDDTEYDPKFQGRVTMTADTSTSTVYMELSSLRSEDTAVYYCAARYYAFDYWGQGTMVTVSS
VL: DVLMTQSPLSLPVTLGQPASISCRSSQSIVHSNANTYLEWYLQRPGQSPRLLIYKVSNRFSGVPDRFSGSGSGTDFTLKISRVEAEDVGVYYCFQGSQVPPTFGQGTKLEIK
modifications: MMAE drug moiety conjugated; site and chain not stated
notes: as for B4
Human LIV-1 [9]
  Min cell viability %, BT20/H_LIV-1 High: 18.6%
  Min cell viability %, BT20/H_LIV-1 Low: 40.3%
  Min cell viability %, HEK293/H_LIV-1: 15.8%
Human LIV-1 [10]
  EC50: 0.07 nM
  Top (MFI): 3420 MFI
Human LIV-1 [11]
  EC50: 0.11 nM
  Top (MFI): 20000 MFI
Human LIV-1 [12]
  EC50: 0.08 nM
  Top (MFI): 20200 MFI

B6: LM-001-DXD (antibody, V domains shown)
VH: EVQLVQSGAEVKKPGASVKVSCKASGYTFTSYWIHWVRQAPGQGLEWMGTIYPGDADTRSTQKFKDRVTMTADTSTSTVYMELSSLRSEDTAVYYCARSLIHDDYDKYYFDYWGQGTTVTVSS
VL: DIQMTQSPSSLSASVGDRVTITCKARQDINKYIAWYQQKPGKAPKLLIHYTSILQPGIPSRFSGSGSGRDYTFTISSLQPEDIATYYCLQYDYFFTFGGGTKVEIK
modifications: DXD drug moiety conjugated; site and chain not stated
Human LIV-1 [13]
  Bottom (% viability), BT20/H_LIV1-High expression: 43.7%
  Bottom (% viability), BT20/H_LIV1-Low expression: 58.9%

B7: LM-001-LM-D01 (antibody, V domains shown)
VH: EVQLVQSGAEVKKPGASVKVSCKASGYTFTSYWIHWVRQAPGQGLEWMGTIYPGDADTRSTQKFKDRVTMTADTSTSTVYMELSSLRSEDTAVYYCARSLIHDDYDKYYFDYWGQGTTVTVSS
VL: DIQMTQSPSSLSASVGDRVTITCKARQDINKYIAWYQQKPGKAPKLLIHYTSILQPGIPSRFSGSGSGRDYTFTISSLQPEDIATYYCLQYDYFFTFGGGTKVEIK
modifications: LM-D01 drug-linker conjugated; site and chain not stated
Human LIV-1 [13]
  Bottom (% viability), BT20/H_LIV1-High expression: 37.9%
  Bottom (% viability), BT20/H_LIV1-Low expression: 48.4%

B8: LM-001-LM-D03 (antibody, V domains shown)
VH: EVQLVQSGAEVKKPGASVKVSCKASGYTFTSYWIHWVRQAPGQGLEWMGTIYPGDADTRSTQKFKDRVTMTADTSTSTVYMELSSLRSEDTAVYYCARSLIHDDYDKYYFDYWGQGTTVTVSS
VL: DIQMTQSPSSLSASVGDRVTITCKARQDINKYIAWYQQKPGKAPKLLIHYTSILQPGIPSRFSGSGSGRDYTFTISSLQPEDIATYYCLQYDYFFTFGGGTKVEIK
modifications: LM-D03 drug-linker conjugated; site and chain not stated
Human LIV-1 [13]
  Bottom (% viability), BT20/H_LIV1-High expression: 19.5%
  Bottom (% viability), BT20/H_LIV1-Low expression: 46.9%
